Results taken from the RNAGym collection of RNA variant scans (doi:10.1073/pnas.2313332121).

B1: TPR t1 (parent)
chain: GACCAAUCUGCCCUCAGAGCUCGAGAACAUCUUCGGAUGCAGAGGAGGCAGGCUUCGGUGGCGCGAUAGCGCCAACGUCCUCAACCUCCAAUGCAUCCCACCACAUGAUGAUGCCUGAAGAGCCUUGGUUUUUUG

Variants of: B1
Test: polymerase ribozyme fitness, log enrichment relative to wild type (log ratio); higher = more active; in vitro selection for triplet polymerase activity
Outline: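 Fitness compares each genotype's enrichment to that of the wild type on a logarithmic scale, averaging replicates with inverse-variance weights. The logarithm is base 2. Enrichment came from Illumina sequencing of input and output libraries after one triplicate round of in vitro selection, which included frozen incubation at −7 °C, of PCR-built, transcribed mutant libraries of each subunit of a heterodimeric triplet polymerase ribozyme. Only genotypes with ≥10 input reads and ≥1 read per output were kept.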

Variant	polymerase ribozyme fitness (log ratio)
C13A A74G C86A C101G	-4.34
C13G A18G	-5.42
C13A A121C G128C	-1.87
C12U G45C C102A	-2.34
C12U U55G U59C U133A	-0.128
C12U G44U A46U C85A	-4.14
C12U G39U U55A G71A C94G C102A G113U	-6.81
C12U U133A	0.306
C13A A27C G36A	-4.52
C13G A41C A50U U133A	-4.37
C13A G39U U59G G69C	-3.36
C13A C76G C97U C102A C104U	-3.66
C13A A90U	-3.48
C12U U14A	-2.23
C12U G42C C72U	-1.28
C13A G45A G113U G117C	-6.5
C12U G58A C62A	-1.76
C12U C102A	-1.07
C13A A27U A43U G57C	-4.33
C13A U109A G110C G128U	-3.64
C12U G61A A84U	0.279
C12U C124A	1.8
C12U C86A	0.101
C13A A41U G57U	-3.67

Variant	polymerase ribozyme fitness (log ratio)
C13A A24G A29G C94A	-4.2
C12U U106A	0.462
C12U G17C C49U C82G C94U C99G C123A	-7.59
C13A G36A G52U C97U A111C	-2.68
C12U G69U U78G A100U	-0.359
C13A C40U	-1.37
C13A G48A U96A	-2.1
C13A C49U G51U G69U A111U G120A	-6.99
C12U G61C C94U	-0.805
C12U U129A	-0.808
C12U G48C C72G U131G	-1.72
C13A A50U G71U	-2.57
C13A A26G C53G A84U A90G	-4.94
C12U G52U C53G U78G	-0.0807
C13A U38C C49G G61U U106G C115G G135C	-6
C13G A29G G42A	-5.99
C13A G71U A74G U109A	-6.36
C13A G48A G61A U106A A118G	-2.04
C12U G19A C56G U130C	-2.66
C12U G17U	-0.854
C13A G44A C89U C102G	-6.88
C13A G69U C73G	-5.01
C12U U21A G35A	-4.8
C13A C88G A105G G120U	-4.2

Variant	polymerase ribozyme fitness (log ratio)
C13G A90C A95G	-3.14
C12U G57A	-0.879
C12U U30G G63U G113C G117C	-7.89
C12U G36U G47U U106G	-5.66
C12U U59G	0.247
C13A C73G G120A C123A	-1.91
C12U G35A G42U U112C	-5.14
C12U G42C C53A G71U C88G G128A G135U	-6.24
C13A C56A	-1.3
C13A C56G	-2.27
C12U C98U	-0.736
C12U C98G	-4.85
C12U G63C C82U A103C	-6.59
C12U G69C C73U U129G	-3.42
C13A U78G C88A A105U	-4.55
C13A C89A	-3.37
C12U G47C C97G G120C	-3.35
C12U U21G C62G A74C U78A	-3.33
C12U U38G C72G	-0.666
C12U U54A C64U	0.381
C13A A16U G71C G120C	-0.814
C12U G44U C72G G127A G128C	-4.51
C12U C80U C89U C99U G120A	-2.97
C13A C28G C34A G69A A84C G110C	-4.89

Variant	polymerase ribozyme fitness (log ratio)
C13A G48A	-2.23
C13A U14G G42A A84U	-3.34
C12U G42U C73A U112A G135C	-0.178
C13A G39C C76G U106C	-2.79
C13G C15U	-2.51
C13G C15A	-2.5
C13A C101U	-2.13
C13A A16U C94U A111U C123G U130C	-6.28
C12U U116G	-0.0621
C13A G36C	-1.87
C13G A41U C97U	-3.81
C12U G39C G45U A100U U131G	-3
C12U G47U A83C	-2.09
C13G C15G A26U C94A C114U	-6.55
C13G A37G	-2.1
C13G A37U	-1.57
C12U U14G C15G G61A C88U U129C	-1.38
C13G A66U C114A	-4.3
C12U G61U	0.129
C13A C64U	-1.99
C13A A50U	-3.1
C12U G42C C73A G122A	-0.687
C12U U109C	-2.5
C12U U38G C62U C76U C79A	-1.79

Variant	polymerase ribozyme fitness (log ratio)
C12U G69C	-0.628
C12U U14C C72G C82G U112A	0.602
C13A C15G U106A G117C	-0.827
C13A C94G C101A	-4.8
C13A C49G C56G U96A	-3.42
C13A A46C G69C C124G	-1.36
C13A A100U U131G	-2.21
C13A C40U C88U C101A U112A	-2.49
C13A C79G	-3.47
C13A A18G	-3.1
C12U G42A A95U	-1.64
C13A U81A	-3.27
C13A G19C G69U G110U U112C	-5.05
C12U G117A	0.626
C12U C102A C124U	0.00391
C13A A41G G63A U132C	-4.55
C12U C89U	0.399
C13A A29G C53U	-2.88
C13A A83U	-2.07
C13A C56U C80A	-2.82
C12U G52A G117C	-0.882
C13G A74G C79U	-1.86
C12U G51C C79U	-2.71
C13A C28G C34A A84C G110C	-1.53

Variant	polymerase ribozyme fitness (log ratio)
C12U G110U	-0.322
C13G A50U	-3.13
C12U U32C G69U C76G G77U C80U A84G	-4.98
C13A C49U U87G C123A U131G	-0.403
C13A G69U A74U U87A A100C U109A	-5.82
C12U G122U	1.06
C12U G47A G113U	-3.45
C13G A16U C82A C89G	-4.33
C13G A26G C49A U96A	-5.63
C13G C15U G58C	-3.58
C12U C101U	-0.102
C12U G44C A50C	-0.802
C12U G47U C86G G122A	0.433
C12U G60U G69A C86U C101A U112C	-6.42
C13A G61A C89A	-3.18
C13A G19U C82A U87G G120A	-3.21
C12U G71A A111C C115A U131G U133A	-0.622
C13G A37U G48A C49U C85U G93C G120U	-1.53
C13A C73G	-3.11
C13G A16U C49A G63A	-3.65
C13A G71A A90G	-2.51
C13A A41U G45C C82A	-4.65
C12U G61U A105G	-1.62
C13G A41C	-3.32

Variant	polymerase ribozyme fitness (log ratio)
C13A U130A	-2.56
C13A C49A G71A	-1.76
C13A C70G U112A C123U	-4
C12U G61A U106A C114A	-0.698
C12U U33G U131A	-4.55
C12U G52A U112A G120A	1.03
C12U C123A	2.11
C12U U33G G69U C99A C115A U125C	-6.8
C12U U14A G110U G113A U130C	-4.17
C12U G19U	-2.49
C13A G42C A66C C99U C101U C114U G127U	-6.24
C13A C88U	-2.04
C12U G63A G113A	-1.59
C13A G61A	-1.81
C13G A24G A27G C56G A111C	-7.83
C12U G60A	-0.607
C12U G60C	0.537
C13A C53U	-2
C13A G63A A74C G128A	-5.18
C13A G51A	-4.85
C12U U87A	0.248
C13G A37U C53A C79A U87C U129C	-5.34
C12U G44U	-0.985
